These results are taken from paper PMC5105163.

In the assay the target is HLA-DM, P28067;P28068. Kind of assay: SPR. The settings on record: parent DR1/CW trace is at 10 µM, parent: est. 0, read off a plot.

Consider “HLA-DR1/CLIP_(102-120)M107W complex (from UniProt P04233) βG84P; βE87P”, for which the response (5 µM DR1-βG84PβE87P/CW analyte over immobilised DM) worked out at 270 RU. In the case of “HLA-DR1/CLIP_(102-120)M107W complex (from UniProt P04233) βE87P”, the response (10 µM DR1-βE87P/CW analyte over immobilised DM) is 50 RU.
